The text below walks through data of article PMC8769934 (Cell Reports, 2022).

One test concerns the target dissociated S1 protomer (SARS-CoV-2, Wuhan-Hu-1, stabilised). Briefly: cryo-EM structure.
The target in test [1] is recombinant S1 domain containing B.1.1.7 mutations (SARS-CoV-2 B.1.1.7 (Alpha), strain). Nature of the test: BLI.

B1: N-612-004 Fab (Fab, V domains shown)
VH: EVQLVESGGGLVQPGGSLRLSCAASGFTFSSYYMHWVRQAPGKGLEWVSAISGSGGYTYYADSVKGRFTISRDNSKNTLYLQMNSLRAEDTAVYYCARDRDHAYDWGFDVWGQGTLVTVSS
VL: DIQMTQSPSSLSASVGDRVTITCQASQDISNYLNWYQQKPGKAPKLLIYDASNLETGVPSRFSGSGSGTDFTFTISSLQPEDIATYYCQQWADWPLTFGQGTKVEIK
With B1, the binding result with dissociated S1 protomer is on record as “binds”.

B2: N-612-004 (IgG1) (antibody, V domains shown)
VH: EVQLVESGGGLVQPGGSLRLSCAASGFTFSSYYMHWVRQAPGKGLEWVSAISGSGGYTYYADSVKGRFTISRDNSKNTLYLQMNSLRAEDTAVYYCARDRDHAYDWGFDVWGQGTLVTVSS
VL: DIQMTQSPSSLSASVGDRVTITCQASQDISNYLNWYQQKPGKAPKLLIYDASNLETGVPSRFSGSGSGTDFTFTISSLQPEDIATYYCQQWADWPLTFGQGTKVEIK
Turning to B2, the “fold reduction of binding affinity against S1” value in test [1] is roughly 3 fold.
